Experimental data: the RNAGym collection of RNA variant scans (doi:10.7554/elife.90254)

B1: OR4K15 (parent)
chain: GUUAACGGUCAUAGGCCAUGGAAACUAGGAGCACCAUUUCGCUGCCAGUGAAGAAAUGAACAAAGAAAAUCUGGGCCAGGCAGGCAUCAAAAGAAAUAGUCUUGCGCUCAACCAGAAAGUCUGUAAUCAUUUUAAGGGUA

Variants of: B1
Test: self-cleavage, relative activity (ratio to wild type); higher = more cleavage; in vitro, sequencing; the parent is a self-cleaving ribozyme

In order of falling self-cleavage:
1. GUUAACGGUCAUAGGCCAUGGAAACUAGGAGCACCAUUUCGCUGCCAGUGAAGAAAUGAACAAAGAAAAUCUGGGCUAGGCAGGCAUCAAAAGAAAUAGCCUUGCGCUCAACCAGAAAGUCUGUAAUCAUUUUAAGGGUA  2.13
2. GUUAACGGUCAUAGGCCAUGGAAACUAGGAGCACCAUUUCGCUGCCAGUGAAGAAAUGAACAAAGAAAAUCUGGGCUAGGCAGGCAUCAAAAGAAAUAGUCUUGCGCUCAACCAGAAAGUCUGUAAUCAUUCUAAGGGUA  1.95
3. GUUAACGGUCAUAGGCCAUGGAAACUAGGAGCACCAUUUCGCUGCCAGUGAAGAAAUGAACAAAGAAAAUCUGGGCUAGGCAGGCAUCAAAAGAAAUAGUCUUGCGCUCAACCAGAAAGUCUGUAAUCACUUUAAGGGUA  1.61
4. GUUAACGGUCAUAGGCCAUGGAAACUAGGAGCACCAUUUCGCUGCCAGUGAAGAAAUGAACAAAGAAAAUCUGGGCUAGGCAGGCAUCAAAAGAAAUAGUCAUGCGCUCAACCAGAAAGUCUGUAAUCAUUUUAAGGGUA  1.57
5. GUUAACGGUCAUAGGCCAUGGAAACUAGGAGCACCAUUUCGCUGCCAGUGAAGAAAUGAACAAAGAAAAUCUGGGCUAGGCAGGCACCAAAAGAAAUAGUCUUGCGCUCAACCAGAAAGUCUGUAAUCAUUUUAAGGGUA  1.31
6. GUUAACGGUCAUAGGCCAUGGAAACUAGGAGCACCAUUUCGCUGCCAGUGAAGAAAUGAACAAAGAAAAUCUGGGCUAGGCAGGCAUCAAAAGAAAUAGUCUUGCGCUCAACCAGAAAGCCUGUAAUCAUUUUAAGGGUA  1.21
7. GUUAACGGUCAUAGGCCAUGGAAACUAGGAGCACCAUUUCGCUGCCAGUGAAGAAAUGAACAAAGAAAAUCUGGGCCCGGCAGGCAUCAAAAGAAAUAGUCCUGCGCUCAACCAGAAAGUCUGUAAUCAUUUUAAGGGUA  0.42
8. GUUAACGGUCAUAGGCCAUGGAAACUAGGAGCACCAUUUCGCUGCCAGUGAAGAAAUGAACAAAGAAAAUCUGGGCCGGGCAGGCAUCAAAAGAAUUAGUCUUGCGCUCAACCAGAAAGUCUGUAAUCAUUUUAAGGGUA  0.4
9. GUUAACGGUCAUAGGCCAUGGAAACUAGGAGCACCAUUUCGCUGCCAGUGAAGAAAUGAACAAAGAAAAUCUGGGCCGGGCAGGCAUCAAAAGAAAUUGUCUUGCGCUCAACCAGAAAGUCUGUAAUCAUUUUAAGGGUA  0.39
10. GUUAACGGUCAUAGGCCAUGGAAACUAGGAGCACCAUUUCGCUGCCAGUGAAGAAAUGAACAAAGAAAAUCUGGGCCGGGCAGGCAUCAAAAGAAAUAGUCUUGCGCUCAACCAGAAAGUCUGUAAUCAUUUUAAGGGUU  0.36
11. GUUAACGGUCAUAGGCCAUGGAAACUAGGAGCACCAUUUCGCUGCCAGUGAAGAAAUGAACAAAGAAAAUCUGGGCCCGGCAGGCAUCAAAAGAAAUAGUCUUGCGCUCAACCAGAAAGUCUGUAAUCAUUCUAAGGGUA  0.33
12. GUUAACGGUCAUAGGCCAUGGAAACUAGGAGCACCAUUUCGCUGCCAGUGAAGAAAUGAACAAAGAAAAUCUGGGCCGGGCAGGCAUCAAAAGAAAUAGUCUUGCGCUCAACCAGAAAGUCUGUAAUCAUUUUAAGGGUG  0.32
13. GUUAACGGUCAUAGGCCAUGGAAACUAGGAGCACCAUUUCGCUGCCAGUGAAGAAAUGAACAAAGAAAAUCUGGGCCGGGCAGGCAUCAAAAGAAAUAGUCUUGCGCUCAACCAGAAGGUCUGUAAUCAUUUUAAGGGUA  0.29
14. GUUAACGGUCAUAGGCCAUGGAAACUAGGAGCACCAUUUCGCUGCCAGUGAAGAAAUGAACAAAGAAAAUCUGGGCCGGGCAGGCAUCAAAAGAAAUCGUCUUGCGCUCAACCAGAAAGUCUGUAAUCAUUUUAAGGGUA  0.27
15. GUUAACGGUCAUAGGCCAUGGAAACUAGGAGCACCAUUUCGCUGCCAGUGAAGAAAUGAACAAAGAAAAUCUGGGCCCGGCAGGCAUCAAAAGAAGUAGUCUUGCGCUCAACCAGAAAGUCUGUAAUCAUUUUAAGGGUA  0.27
16. GUUAACGGUCAUAGGCCAUGGAAACUAGGAGCACCAUUUCGCUGCCAGUGAAGAAAUGAACAAAGAAAAUCUGGGCCCGGCAGGCACCAAAAGAAAUAGUCUUGCGCUCAACCAGAAAGUCUGUAAUCAUUUUAAGGGUA  0.27
17. GUUAACGGUCAUAGGCCAUGGAAACUAGGAGCACCAUUUCGCUGCCAGUGAAGAAAUGAACAAAGAAAAUCUGGGCCGGGCAGGCAUCAAAAGAAAUAGUCUUGCGCUCAACCAGAAAGUCUGUAAUCUUUUUAAGGGUA  0.25
18. GUUAACGGUCAUAGGCCAUGGAAACUAGGAGCACCAUUUCGCUGCCAGUGAAGAAAUGAACAAAGAAAAUCUGGGCCGGGCAGGCAUCAGAAGAAAUAGUCUUGCGCUCAACCAGAAAGUCUGUAAUCAUUUUAAGGGUA  0.24
19. GUUAACGGUCAUAGGCCAUGGAAACUAGGAGCACCAUUUCGCUGCCAGUGAAGAAAUGAACAAAGAAAAUCUGGGCCCGGCAGGCAUCAAAAGAAAUAGUCUUGCGCUCAACCAGAAAGUCUGUAAUCAUUUCAAGGGUA  0.24
20. GUUAACGGUCAUAGGCCAUGGAAACUAGGAGCACCAUUUCGCUGCCAGUGAAGAAAUGAACAAAGAAAAUCUGGGCCGGGCAGGCAUCAAAAGAAAUAGUCUUGCGCUCAACCAGAGAGUCUGUAAUCAUUUUAAGGGUA  0.22
21. GUUAACGGUCAUAGGCCAUGGAAACUAGGAGCACCAUUUCGCUGCCAGUGAAGAAAUGAACAAAGAAAAUCUGGGCCGGGCAGGCAUCAAUAGAAAUAGUCUUGCGCUCAACCAGAAAGUCUGUAAUCAUUUUAAGGGUA  0.22
22. GUUAACGGUCAUAGGCCAUGGAAACUAGGAGCACCAUUUCGCUGCCAGUGAAGAAAUGAACAAAGAAAAUCUGGGCCCGGCAGGCAUCAAAAGAAAUAGUCUUGCGCUCAACCAGAAAGUCUGUAAUCACUUUAAGGGUA  0.21
23. GUUAACGGUCAUAGGCCAUGGAAACUAGGAGCACCAUUUCGCUGCCAGUGAAGAAAUGAACAAAGAAAAUCUGGGCCGGGCUGGCAUCAAAAGAAAUAGUCUUGCGCUCAACCAGAAAGUCUGUAAUCAUUUUAAGGGUA  0.19
24. GUUAACGGUCAUAGGCCAUGGAAACUAGGAGCACCAUUUCGCUGCCAGUGAAGAAAUGAACAAAGAAAAUCUGGGCCCGGCAGGCAUCAACAGAAAUAGUCUUGCGCUCAACCAGAAAGUCUGUAAUCAUUUUAAGGGUA  0.19
25. GUUAACGGUCAUAGGCCAUGGAAACUAGGAGCACCAUUUCGCUGCCAGUGAAGAAAUGAACAAAGAAAAUCUGGGCCGGGCAGGCAUCAAAAGAAAUAGUCUUGCGCUCAACCAGAAAGUCUGUAAUCAUUUUAGGGGUA  0.19
26. GUUAACGGUCAUAGGCCAUGGAAACUAGGAGCACCAUUUCGCUGCCAGUGAAGAAAUGAACAAAGAAAAUCUGGGCCGGGCAGGCAUCAAAAGGAAUAGUCUUGCGCUCAACCAGAAAGUCUGUAAUCAUUUUAAGGGUA  0.19
27. GUUAACGGUCAUAGGCCAUGGAAACUAGGAGCACCAUUUCGCUGCCAGUGAAGAAAUGAACAAAGAAAAUCUGGGCCCGGCAGGCAUCAAAAGAAAUAGUCUUGCGCUUAACCAGAAAGUCUGUAAUCAUUUUAAGGGUA  0.19
28. GUUAACGGUCAUAGGCCAUGGAAACUAGGAGCACCAUUUCGCUGCCAGUGAAGAAAUGAACAAAGAAAAUCUGGGCCGGGCAGGCAUCGAAAGAAAUAGUCUUGCGCUCAACCAGAAAGUCUGUAAUCAUUUUAAGGGUA  0.18
29. GUUAACGGUCAUAGGCCAUGGAAACUAGGAGCACCAUUUCGCUGCCAGUGAAGAAAUGAACAAAGAAAAUCUGGGCCCGGCAGGCAUCAAAAGAAAUAGUCUUGCGCUCAACCAGAAAGUCUGUAAUCAUCUUAAGGGUA  0.17
30. GUUAACGGUCAUAGGCCAUGGAAACUAGGAGCACCAUUUCGCUGCCAGUGAAGAAAUGAACAAAGAAAAUCUGGGCCGGGCAGGCAUCAAAAGAAAUAGUCUUGCGCUCAACCAGGAAGUCUGUAAUCAUUUUAAGGGUA  0.15
31. GUUAACGGUCAUAGGCCAUGGAAACUAGGAGCACCAUUUCGCUGCCAGUGAAGAAAUGAACAAAGAAAAUCUGGGCCCGGCAGGCAUCAAAAGAAAUAGUCUCGCGCUCAACCAGAAAGUCUGUAAUCAUUUUAAGGGUA  0.14
32. GUUAACGGUCAUAGGCCAUGGAAACUAGGAGCACCAUUUCGCUGCCAGUGAAGAAAUGAACAAAGAAAAUCUGGGCUAUGCAGGCAUCAAAAGAAAUAGUCUUGCGCUCAACCAGAAAGUCUGUAAUCAUUUUAAGGGUA  0.13
33. GUUAACGGUCAUAGGCCAUGGAAACUAGGAGCACCAUUUCGCUGCCAGUGAAGAAAUGAACAAAGAAAAUCUGGGCCCGGCAGGCAUCAAAAGAAAUAGUCUUGCGCUCAACCAGGAAGUCUGUAAUCAUUUUAAGGGUA  0.13
34. GUUAACGGUCAUAGGCCAUGGAAACUAGGAGCACCAUUUCGCUGCCAGUGAAGAAAUGAACAAAGAAAAUCUGGGCCGGGCAGGCAUCAAGAGAAAUAGUCUUGCGCUCAACCAGAAAGUCUGUAAUCAUUUUAAGGGUA  0.13
35. GUUAACGGUCAUAGGCCAUGGAAACUAGGAGCACCAUUUCGCUGCCAGUGAAGAAAUGAACAAAGAAAAUCUGGGCCCGGCGGGCAUCAAAAGAAAUAGUCUUGCGCUCAACCAGAAAGUCUGUAAUCAUUUUAAGGGUA  0.11
36. GUUAACGGUCAUAGGCCAUGGAAACUAGGAGCACCAUUUCGCUGCCAGUGAAGAAAUGAACAAAGAAAAUCUGGGCCCGGCAGGCAUCAAAAGAAAUAGUCUUGCGCUCAACCAGAAAGUCCGUAAUCAUUUUAAGGGUA  0.1
37. GUUAACGGUCAUAGGCCAUGGAAACUAGGAGCACCAUUUCGCUGCCAGUGAAGAAAUGAACAAAGAAAAUCUGGGCCGGGCAGGCAUCAAAAGAAAUAGUCUUGCGCUCAACCAGAAAGUCUGUACUCAUUUUAAGGGUA  0.09
38. GUUAACGGUCAUAGGCCAUGGAAACUAGGAGCACCAUUUCGCUGCCAGUGAAGAAAUGAACAAAGAAAAUCUGGGCCGGGCAGGCAUCAAAAGAAAUGGUCUUGCGCUCAACCAGAAAGUCUGUAAUCAUUUUAAGGGUA  0.08
39. GUUAACGGUCAUAGGCCAUGGAAACUAGGAGCACCAUUUCGCUGCCAGUGAAGAAAUGAACAAAGAAAAUCUGGGCCGGGCAGGCAUCAAAAGAAAUAGUCUUGCGCUCAACCGGAAAGUCUGUAAUCAUUUUAAGGGUA  0.05
40. GUUAACGGUCAUAGGCCAUGGAAACUAGGAGCACCAUUUCGCUGCCAGUGAAGAAAUGAACAAAGAAAAUCUGGGCCCGGCAGGCAUCAAAAGAAAUAGUCUUGCACUCAACCAGAAAGUCUGUAAUCAUUUUAAGGGUA  0.03
41. GUUAACGGUCAUAGGCCAUGGAAACUAGGAGCACCAUUUCGCUGCCAGUGAAGAAAUGAACAAAGAAAAUCUGGGCCCGGCAGGCAUCAAAAGAAAUAGUCUUGCGCACAACCAGAAAGUCUGUAAUCAUUUUAAGGGUA  0.01
